{"source": "IntAct's records for PubMed 23706742", "parents": {"B1": {"name": "Phosphatidylinositol 4,5-bisphosphate 3-kinase catalytic subunit beta isoform (Mus musculus), Q8BTI9 (parent)", "chain": "MPPAMADNLDIWAVDSQIASDGAISVDFLLPTGIYIQLEVPREATISYIKQMLWKQVHNYPMFNLLMDIDSYMFACVNQTAVYEELEDETRRLCDVRPFLPVLKLVTRSCDPAEKLDSKIGVLIGKGLHEFDALKDPEVNEFRRKMRKFSEAKIQSLVGLSWIDWLKHTYPPEHEPSVLENLEDKLYGGKLVVAVHFENSQDVFSFQVSPNLNPIKINELAIQKRLTIRGKEDEASPCDYVLQVSGRVEYVFGDHPLIQFQYIRNCVMNRTLPHFILVECCKIKKMYEQEMIAIEAAINRNSSNLPLPLPPKKTRVISHIWDNNNPFQITLVKGNKLNTEETVKVHVRAGLFHGTELLCKTVVSSEISGKNDHIWNEQLEFDINICDLPRMARLCFAVYAVLDKVKTKKSTKTINPSKYQTIRKAGKVHYPVAWVNTMVFDFKGQLRSGDVILHSWSSFPDELEEMLNPMGTVQTNPYAENATALHITFPENKKQPCYYPPFDKIIEKAAELASGDSANVSSRGGKKFLAVLKEILDRDPLSQLCENEMDLIWTLRQDCRENFPQSLPKLLLSIKWNKLEDVAQLQALLQIWPKLPPREALELLDFNYPDQYVREYAVGCLRQMSDEELSQYLLQLVQVLKYEPFLDCALSRFLLERALDNRRIGQFLFWHLRSEVHTPAVSVQFGVILEAYCRGSVGHMKVLSKQVEALNKLKTLNSLIKLNAVKLSRAKGKEAMHTCLKQSAYREALSDLQSPLNPCVILSELYVEKCKYMDSKMKPLWLVYSSRAFGEDSVGVIFKNGDDLRQDMLTLQMLRLMDLLWKEAGLDLRMLPYGCLATGDRSGLIEVVSTSETIADIQLNSSNVAATAAFNKDALLNWLKEYNSGDDLDRAIEEFTLSCAGYCVASYVLGIGDRHSDNIMVKKTGQLFHIDFGHILGNFKSKFGIKRERVPFILTYDFIHVIQQGKTGNTEKFGRFRQCCEDAYLILRRHGNLFITLFALMLTAGLPELTSVKDIQYLKDSLALGKSEEEALKQFKQKFDEALRESWTTKVNWMAHTVRKDYRS"}, "B2": {"name": "GTP-binding protein Di-Ras1 (Mus musculus), Q91Z61 (parent)", "chain": "MPEQSNDYRVVVFGAGGVGKSSLVLRFVKGTFRDTYIPTIEDTYRQVISCDKSVCTLQITDTTGSHQFPAMQRLSISKGHAFILVFSVTSKQSLDELSPIYKLIVQIKGSVEDIPIMLVGNKCDETQREVHTREAQAVAQEWKCAFMETSAKMNYNVKELFQELLTLETRRSVSLSVDGKRSSKQKRADRIKGKCALM"}}, "data": [{"variants_of": "B1", "conditions": "with rac1_mouse Rac1, P63001", "values": [{"variant": "K231A", "effect of a mutation on the interaction": "decreasing interaction strength"}, {"variant": "K190A", "effect of a mutation on the interaction": "decreasing interaction strength"}, {"variant": "E183A", "effect of a mutation on the interaction": "decreasing interaction strength"}, {"variant": "R229A", "effect of a mutation on the interaction": "disrupting interaction strength"}, {"variant": "V203S", "effect of a mutation on the interaction": "disrupting interaction strength"}, {"variant": "V203K", "effect of a mutation on the interaction": "disrupting interaction strength"}, {"variant": "S205D;K224A", "effect of a mutation on the interaction": "decreasing interaction strength"}, {"variant": "T227D", "effect of a mutation on the interaction": "decreasing interaction strength"}, {"variant": "L186A", "effect of a mutation on the interaction": "disrupting interaction strength"}, {"variant": "V192S", "effect of a mutation on the interaction": "disrupting interaction strength"}, {"variant": "V192K", "effect of a mutation on the interaction": "disrupting interaction strength"}, {"variant": "K185A", "effect of a mutation on the interaction": "decreasing interaction strength"}, {"variant": "Q223D", "effect of a mutation on the interaction": "decreasing interaction strength"}, {"variant": "A194K", "effect of a mutation on the interaction": "disrupting interaction strength"}, {"variant": "A194S", "effect of a mutation on the interaction": "decreasing interaction strength"}, {"variant": "E219A", "effect of a mutation on the interaction": "decreasing interaction strength"}, {"variant": "D202A", "effect of a mutation on the interaction": "disrupting interaction strength"}, {"variant": "Q207D", "effect of a mutation on the interaction": "decreasing interaction strength"}, {"variant": "Y187A", "effect of a mutation on the interaction": "disrupting interaction strength"}]}, {"variants_of": "B1", "conditions": "with cdc42_mouse Cdc42, P60766", "values": [{"variant": "K231A", "effect of a mutation on the interaction": "disrupting interaction strength"}, {"variant": "K190A", "effect of a mutation on the interaction": "decreasing interaction strength"}, {"variant": "E183A", "effect of a mutation on the interaction": "decreasing interaction strength"}, {"variant": "R229A", "effect of a mutation on the interaction": "disrupting interaction strength"}, {"variant": "V203S", "effect of a mutation on the interaction": "disrupting interaction strength"}, {"variant": "V203K", "effect of a mutation on the interaction": "disrupting interaction strength"}, {"variant": "S205D;K224A", "effect of a mutation on the interaction": "decreasing interaction strength"}, {"variant": "T227D", "effect of a mutation on the interaction": "disrupting interaction strength"}, {"variant": "L186A", "effect of a mutation on the interaction": "disrupting interaction strength"}, {"variant": "V192S", "effect of a mutation on the interaction": "disrupting interaction strength"}, {"variant": "V192K", "effect of a mutation on the interaction": "disrupting interaction strength"}, {"variant": "K185A", "effect of a mutation on the interaction": "decreasing interaction strength"}, {"variant": "Q223D", "effect of a mutation on the interaction": "decreasing interaction strength"}, {"variant": "A194K", "effect of a mutation on the interaction": "disrupting interaction strength"}, {"variant": "A194S", "effect of a mutation on the interaction": "decreasing interaction strength"}, {"variant": "E219A", "effect of a mutation on the interaction": "decreasing interaction strength"}, {"variant": "D202A", "effect of a mutation on the interaction": "disrupting interaction strength"}, {"variant": "Q207D", "effect of a mutation on the interaction": "decreasing interaction strength"}, {"variant": "Y187A", "effect of a mutation on the interaction": "disrupting interaction strength"}]}, {"variants_of": "B1", "conditions": "with cdc42_mouse Cdc42, P60766", "remark": "another data set of the same source", "values": [{"variant": "S205D;K224A", "effect of a mutation on the interaction": "disrupting interaction strength"}]}, {"variants_of": "B1", "conditions": "with rash_mouse Hras", "values": [{"variant": "S205D;K224A", "effect of a mutation on the interaction": "disrupting interaction strength"}]}, {"variants_of": "B1", "conditions": "with rac1_mouse Rac1, P63001", "remark": "another data set of the same source", "values": [{"variant": "S205D;K224A", "effect of a mutation on the interaction": "disrupting interaction"}]}, {"variants_of": "B1", "conditions": "with cdc42_mouse Cdc42, P60766", "remark": "another data set of the same source", "values": [{"variant": "S205D;K224A", "effect of a mutation on the interaction": "disrupting interaction"}]}, {"variants_of": "B1", "conditions": "with rac1_mouse Rac1, P63001", "remark": "another data set of the same source", "values": [{"variant": "S205D;V244A", "effect of a mutation on the interaction": "disrupting interaction strength"}]}, {"variants_of": "B2", "conditions": "with pk3cb_mouse Pik3cb", "values": [{"variant": "I37D", "effect of a mutation on the interaction": "decreasing interaction strength"}]}]}
